The target of series [1] is T1, Flag-Aub WT (Drosophila melanogaster, UniProt O76922 1-866).
T1 sequence: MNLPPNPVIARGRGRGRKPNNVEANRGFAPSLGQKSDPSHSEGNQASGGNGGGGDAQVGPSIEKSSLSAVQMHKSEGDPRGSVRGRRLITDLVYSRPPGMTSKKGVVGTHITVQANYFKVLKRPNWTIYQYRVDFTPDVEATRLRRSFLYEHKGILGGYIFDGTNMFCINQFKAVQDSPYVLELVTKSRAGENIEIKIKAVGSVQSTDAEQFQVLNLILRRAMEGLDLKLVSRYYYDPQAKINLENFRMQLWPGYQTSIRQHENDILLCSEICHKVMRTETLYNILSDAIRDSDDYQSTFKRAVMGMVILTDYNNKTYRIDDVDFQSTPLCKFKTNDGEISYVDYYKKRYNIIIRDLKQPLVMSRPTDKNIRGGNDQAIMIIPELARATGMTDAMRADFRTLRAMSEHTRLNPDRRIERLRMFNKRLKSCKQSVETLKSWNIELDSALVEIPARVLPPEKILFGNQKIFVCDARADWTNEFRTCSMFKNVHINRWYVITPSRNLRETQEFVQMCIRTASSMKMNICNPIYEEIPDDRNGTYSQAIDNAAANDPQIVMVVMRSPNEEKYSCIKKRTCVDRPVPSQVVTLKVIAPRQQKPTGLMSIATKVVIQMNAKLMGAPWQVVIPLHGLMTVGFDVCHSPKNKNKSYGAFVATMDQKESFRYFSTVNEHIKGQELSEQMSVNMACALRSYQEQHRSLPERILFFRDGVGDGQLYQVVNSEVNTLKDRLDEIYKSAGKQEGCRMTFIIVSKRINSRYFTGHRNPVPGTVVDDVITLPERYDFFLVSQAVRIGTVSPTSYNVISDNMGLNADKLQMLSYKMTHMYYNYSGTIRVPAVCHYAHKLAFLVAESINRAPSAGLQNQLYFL
Description: UV crosslinking.

The target of series [2] is T2, Flag-Aub mutant (M) (Drosophila melanogaster, UniProt O76922 1-866, R11K;R13K;R15K;R17K).
T2 sequence: T1 sequence with R11K, R13K, R15K, R17K
Put plainly: UV crosslinking.

Residue numbers refer to the chain shown, from its start.

In the case of UGACAUGAACACAGGUGCUCAGAUAGCUUU (ssRNA, 4-thio-uridine (s4U) at position 1) [synthetic piRNA with s4U at position 1], the binding result in series [1] and in series [2] was “binds” throughout.

The values are drawn from publication PMC2746449.
